Assay results reported in PMC8155012, “Architecture of the Sema3A/PlexinA4/Neuropilin tripartite complex” (Nature Communications, 2021).

T1: FLAG-tagged PlexinA4 extracellular region (mouse, UniProt Q80UG2 33-1226)
T1 construct: mouse PlexinA4 residues 33–1226, extracellular region; FLAG inserted immediately after the signal peptide; also called PlexinA4-WT; source: Expi293F, purified from medium (Ni-NTA, Superose 6); not shown: FLAG, N-terminal, kept
T1 sequence (looked up): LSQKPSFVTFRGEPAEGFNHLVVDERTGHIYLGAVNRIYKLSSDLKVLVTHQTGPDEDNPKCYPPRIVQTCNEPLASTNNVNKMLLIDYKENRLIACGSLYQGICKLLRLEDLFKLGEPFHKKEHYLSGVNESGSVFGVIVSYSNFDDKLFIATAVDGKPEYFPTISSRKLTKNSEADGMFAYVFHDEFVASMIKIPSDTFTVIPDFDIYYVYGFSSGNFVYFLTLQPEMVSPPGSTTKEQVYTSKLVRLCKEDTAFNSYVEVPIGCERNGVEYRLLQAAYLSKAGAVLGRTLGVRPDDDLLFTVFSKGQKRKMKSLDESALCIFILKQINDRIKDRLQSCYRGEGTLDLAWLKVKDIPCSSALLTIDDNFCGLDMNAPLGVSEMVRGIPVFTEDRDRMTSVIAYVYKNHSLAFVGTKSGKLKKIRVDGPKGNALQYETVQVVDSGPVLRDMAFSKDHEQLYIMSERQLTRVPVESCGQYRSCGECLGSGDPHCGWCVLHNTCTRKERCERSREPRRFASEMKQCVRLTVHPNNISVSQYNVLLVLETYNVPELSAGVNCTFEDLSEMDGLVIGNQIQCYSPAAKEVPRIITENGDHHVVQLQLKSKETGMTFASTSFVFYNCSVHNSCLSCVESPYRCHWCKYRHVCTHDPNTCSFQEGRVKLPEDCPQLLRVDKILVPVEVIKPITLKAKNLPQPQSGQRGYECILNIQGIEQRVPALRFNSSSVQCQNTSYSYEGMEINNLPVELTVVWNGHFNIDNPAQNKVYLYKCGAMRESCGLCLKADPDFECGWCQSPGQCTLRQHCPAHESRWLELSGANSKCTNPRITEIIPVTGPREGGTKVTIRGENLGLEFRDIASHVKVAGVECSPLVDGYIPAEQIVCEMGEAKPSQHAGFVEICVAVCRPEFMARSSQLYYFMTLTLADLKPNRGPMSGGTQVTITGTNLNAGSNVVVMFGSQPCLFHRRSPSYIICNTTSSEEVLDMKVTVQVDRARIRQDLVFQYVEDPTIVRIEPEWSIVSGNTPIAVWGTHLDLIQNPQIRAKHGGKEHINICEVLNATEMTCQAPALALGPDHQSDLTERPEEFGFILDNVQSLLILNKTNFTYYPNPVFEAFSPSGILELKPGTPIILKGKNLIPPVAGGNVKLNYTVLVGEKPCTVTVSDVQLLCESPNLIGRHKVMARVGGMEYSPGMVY


Biological target: T1, FLAG-tagged PlexinA4 extracellular …
Assay: pull-down; FLAG-tagged PlexinA4 (20 µg) on anti-FLAG antibody resin; Nrp1 and Sema3A, 30 µg each, added together; 20 mM HEPES (pH 7.5), 150 mM NaCl, 1 mM CaCl2, 4 °C, 1 h; SDS-PAGE, Coomassie blue
Details: both partners purified

Binder | binding result
Nrp1-a1a2b1b2 A252E (receptor, mouse, UniProt P97333 22-588, looked up, mouse Neuropilin 1 residues 22–588 (a1a2b1b2) with A252E; also called Nrp1-A252E; A252E mutant; source: Expi293F, purified from medium (Ni-NTA, Superose 6)) FRSDKCGGTIKIENPGYLTSPGYPHSYHPSEKCEWLIQAPEPYQRIMINFNPHFDLEDRDCKYDYVEVIDGENEGGRLWGKFCGKIAPSPVVSSGPFLFIKFVSDYETHGAGFSIRYEIFKRGPECSQNYTAPTGVIKSPGFPEKYPNSLECTYIIFAPKMSEIILEFESFDLEQDSNPPGGMFCRYDRLEIWDGFPEVGPHIGRYCGQKTPGRIRSSSGVLSMVFYTDSEIAKEGFSANYSVLQSSISEDFKCMEALGMESGEIHSDQITASSQYGTNWSVERSRLNYPENGWTPGEDSYKEWIQVDLGLLRFVTAVGTQGAISKETKKKYYVKTYRVDISSNGEDWISLKEGNKAIIFQGNTNPTDVVLGVFSKPLITRFVRIKPVSWETGISMRFEVYGCKITDYPCSGMLGMVSGLISDSQITASNQADRNWMPENIRLVTSRTGWALPPSPHPYTNEWLQVDLGDEKIVRGVIIQGGKHRENKVFMRKFKIAYSNNGSDWKTIMDDSKRKAKSFEGNNNYDTPELRTFSPLSTRFIRIYPERATHSGLGLRMELLGCEVEAP | binds
Nrp1-a1a2b1b2 H74A (receptor, mouse, UniProt P97333 22-588, looked up, mouse Neuropilin 1 residues 22–588 (a1a2b1b2) with H74A; also called H74A mutation of Nrp1; source: Expi293F, purified from medium (Ni-NTA, Superose 6)) FRSDKCGGTIKIENPGYLTSPGYPHSYHPSEKCEWLIQAPEPYQRIMINFNPAFDLEDRDCKYDYVEVIDGENEGGRLWGKFCGKIAPSPVVSSGPFLFIKFVSDYETHGAGFSIRYEIFKRGPECSQNYTAPTGVIKSPGFPEKYPNSLECTYIIFAPKMSEIILEFESFDLEQDSNPPGGMFCRYDRLEIWDGFPEVGPHIGRYCGQKTPGRIRSSSGVLSMVFYTDSAIAKEGFSANYSVLQSSISEDFKCMEALGMESGEIHSDQITASSQYGTNWSVERSRLNYPENGWTPGEDSYKEWIQVDLGLLRFVTAVGTQGAISKETKKKYYVKTYRVDISSNGEDWISLKEGNKAIIFQGNTNPTDVVLGVFSKPLITRFVRIKPVSWETGISMRFEVYGCKITDYPCSGMLGMVSGLISDSQITASNQADRNWMPENIRLVTSRTGWALPPSPHPYTNEWLQVDLGDEKIVRGVIIQGGKHRENKVFMRKFKIAYSNNGSDWKTIMDDSKRKAKSFEGNNNYDTPELRTFSPLSTRFIRIYPERATHSGLGLRMELLGCEVEAP | binds
Nrp1-a1a2b1b2 E128R (receptor, mouse, UniProt P97333 22-588, looked up, mouse Neuropilin 1 residues 22–588 (a1a2b1b2) with E128R; also called Nrp1-E128R; source: Expi293F, purified from medium (Ni-NTA, Superose 6)) FRSDKCGGTIKIENPGYLTSPGYPHSYHPSEKCEWLIQAPEPYQRIMINFNPHFDLEDRDCKYDYVEVIDGENEGGRLWGKFCGKIAPSPVVSSGPFLFIKFVSDYRTHGAGFSIRYEIFKRGPECSQNYTAPTGVIKSPGFPEKYPNSLECTYIIFAPKMSEIILEFESFDLEQDSNPPGGMFCRYDRLEIWDGFPEVGPHIGRYCGQKTPGRIRSSSGVLSMVFYTDSAIAKEGFSANYSVLQSSISEDFKCMEALGMESGEIHSDQITASSQYGTNWSVERSRLNYPENGWTPGEDSYKEWIQVDLGLLRFVTAVGTQGAISKETKKKYYVKTYRVDISSNGEDWISLKEGNKAIIFQGNTNPTDVVLGVFSKPLITRFVRIKPVSWETGISMRFEVYGCKITDYPCSGMLGMVSGLISDSQITASNQADRNWMPENIRLVTSRTGWALPPSPHPYTNEWLQVDLGDEKIVRGVIIQGGKHRENKVFMRKFKIAYSNNGSDWKTIMDDSKRKAKSFEGNNNYDTPELRTFSPLSTRFIRIYPERATHSGLGLRMELLGCEVEAP | binds

The remaining lines, values ahead:

binding result | Binder
binds | Sema3A (21–770) F386A (ligand, mouse, UniProt O08665 21-770, looked up, mouse Sema3A residues 21–770 with F386A; internal furin sites mutated; without A106K; also called F386A mutation of Sema3A; source: Expi293F, purified from medium (Ni-NTA, Superose 6)) NYANGKNNVPRLKLSYKEMLESNNVITFNGLANSSSYHTFLLDEERSRLYVGAKDHIFSFNLVNIKDFQKIVWPVSYTRRDECKWAGKDILKECANFIKVLEAYNQTHLYACGTGAFHPICTYIEVGHHPEDNIFKLQDSHFENGRGKSPYDPKLLTASLLIDGELYSGTAADFMGRDFAIFRTLGHHHPIRTEQHDSRWLNDPRFISAHLIPESDNPEDDKVYFFFRENAIDGEHSGKATHARIGQICKNDFGGHRSLVNKWTTFLKARLICSVPGPNGIDTHFDELQDVFLMNSKDPKNPIVYGVFTTSSNIFKGSAVCMYSMSDVRRVFLGPYAHRDGPNYQWVPYQGRVPYPRPGTCPSKTAGGFDSTKDLPDDVITFARSHPAMYNPVFPINNRPIMIKTDVNYQFTQIVVDRVDAEDGQYDVMFIGTDVGTVLKVVSVPKETWHDLEEILLEEMTVFREPTTISAMELSTKQQQLYIGSTAGVAQLPLHRCDIYGKACAECCLARDPYCAWDGSSCSRYFPTAKARTRAQDIRNGDPLTHCSDLQHHDNHHGPSLEERIIYGVENSSTFLECSPKSQRALVYWQFQRRNEDRKEEIRMGDHIIRTEQGLLLRSLQKKDSGNYLCHAVEHGFMQTLLKVTLEVIDTEHLEELLHKDDDGDGSKIKEMSSSMTPSQKVWYRDFMQLINHPNLNTMDEFCEQVWKRDAAQAAQRPGHSQGSSNKWKHMQESKKGANRATHEFERAPR
binds | Sema3A (21–770) K497E (ligand, mouse, UniProt O08665 21-770, looked up, mouse Sema3A residues 21–770 with K497E; internal furin sites mutated; without A106K; also called Sema3A-K497E; Seme3A-K497E; source: Expi293F, purified from medium (Ni-NTA, Superose 6)) NYANGKNNVPRLKLSYKEMLESNNVITFNGLANSSSYHTFLLDEERSRLYVGAKDHIFSFNLVNIKDFQKIVWPVSYTRRDECKWAGKDILKECANFIKVLEAYNQTHLYACGTGAFHPICTYIEVGHHPEDNIFKLQDSHFENGRGKSPYDPKLLTASLLIDGELYSGTAADFMGRDFAIFRTLGHHHPIRTEQHDSRWLNDPRFISAHLIPESDNPEDDKVYFFFRENAIDGEHSGKATHARIGQICKNDFGGHRSLVNKWTTFLKARLICSVPGPNGIDTHFDELQDVFLMNSKDPKNPIVYGVFTTSSNIFKGSAVCMYSMSDVRRVFLGPYAHRDGPNYQWVPYQGRVPYPRPGTCPSKTFGGFDSTKDLPDDVITFARSHPAMYNPVFPINNRPIMIKTDVNYQFTQIVVDRVDAEDGQYDVMFIGTDVGTVLKVVSVPKETWHDLEEILLEEMTVFREPTTISAMELSTEQQQLYIGSTAGVAQLPLHRCDIYGKACAECCLARDPYCAWDGSSCSRYFPTAKARTRAQDIRNGDPLTHCSDLQHHDNHHGPSLEERIIYGVENSSTFLECSPKSQRALVYWQFQRRNEDRKEEIRMGDHIIRTEQGLLLRSLQKKDSGNYLCHAVEHGFMQTLLKVTLEVIDTEHLEELLHKDDDGDGSKIKEMSSSMTPSQKVWYRDFMQLINHPNLNTMDEFCEQVWKRDAAQAAQRPGHSQGSSNKWKHMQESKKGANRATHEFERAPR
binds | Nrp1-a1a2b1b2 S251E (receptor, mouse, UniProt P97333 22-588, looked up, mouse Neuropilin 1 residues 22–588 (a1a2b1b2) with S251E; also called Nrp1-S251E; source: Expi293F, purified from medium (Ni-NTA, Superose 6)) FRSDKCGGTIKIENPGYLTSPGYPHSYHPSEKCEWLIQAPEPYQRIMINFNPHFDLEDRDCKYDYVEVIDGENEGGRLWGKFCGKIAPSPVVSSGPFLFIKFVSDYETHGAGFSIRYEIFKRGPECSQNYTAPTGVIKSPGFPEKYPNSLECTYIIFAPKMSEIILEFESFDLEQDSNPPGGMFCRYDRLEIWDGFPEVGPHIGRYCGQKTPGRIRSSSGVLSMVFYTDEAIAKEGFSANYSVLQSSISEDFKCMEALGMESGEIHSDQITASSQYGTNWSVERSRLNYPENGWTPGEDSYKEWIQVDLGLLRFVTAVGTQGAISKETKKKYYVKTYRVDISSNGEDWISLKEGNKAIIFQGNTNPTDVVLGVFSKPLITRFVRIKPVSWETGISMRFEVYGCKITDYPCSGMLGMVSGLISDSQITASNQADRNWMPENIRLVTSRTGWALPPSPHPYTNEWLQVDLGDEKIVRGVIIQGGKHRENKVFMRKFKIAYSNNGSDWKTIMDDSKRKAKSFEGNNNYDTPELRTFSPLSTRFIRIYPERATHSGLGLRMELLGCEVEAP
